Measured values: the RNAGym collection of RNA variant scans (doi:10.7554/elife.80360)

B1: CPEB3 Ribozyme (parent)
chain: GGGGGCCACAGCAGAAGCGUUCACGUCGCGGCCCCUGUCAGAUUCUGGUGAAUCUGCGAAUUCUGCUGU

Variants of: B1
Test: self-cleavage, relative activity (ratio to wild type); higher = more cleavage; co-transcriptional

In order of rising self-cleavage:
1. GGGGUCCACAGCAUAAGCGUUCACGUCGCGGCCCCUGUCAGAUUCUGGUGAAUCUGCGAAUUCUGCUGU  0.0546
2. GGGGUCCACAGCAGAAGCGUUCACGUCGCGGCCCCUUUCAGAUUCUGGUGAAUCUGCGAAUUCUGCUGU  0.0584
3. GGGGUCGACAGCAGAAGCGUUCACGUCGCGGCCCCUGUCAGAUUCUGGUGAAUCUGCGAAUUCUGCUGU  0.0615
4. GGGGUCCACAGCAGAAGCGUUCACGUCGCGCCCCCUGUCAGAUUCUGGUGAAUCUGCGAAUUCUGCUGU  0.0656
5. GGGGUCCACAGCAGAAGCGUUCACGUCGCGGCCCCUGUCAGAUUCUGGUGAAUCUGCGACUUCUGCUGU  0.0763
6. GGGGUCCACAGCAAAAGCGUUCACGUCGCGGCCCCUGUCAGAUUCUGGUGAAUCUGCGAAUUCUGCUGU  0.078
7. GGGGUCCACAGCAGAAGCGUUCACGUCGCCGCCCCUGUCAGAUUCUGGUGAAUCUGCGAAUUCUGCUGU  0.08
8. GGGGUCCACAGCAGAAGCGUUCACGUCGCGGCCCGUGUCAGAUUCUGGUGAAUCUGCGAAUUCUGCUGU  0.08
9. GGGGUCUACAGCAGAAGCGUUCACGUCGCGGCCCCUGUCAGAUUCUGGUGAAUCUGCGAAUUCUGCUGU  0.0819
10. GGGGUCAACAGCAGAAGCGUUCACGUCGCGGCCCCUGUCAGAUUCUGGUGAAUCUGCGAAUUCUGCUGU  0.086
11. GGGGUCCACAGCAGAAGCGUUCACGUCGCGGCCCCUGUCAUAUUCUGGUGAAUCUGCGAAUUCUGCUGU  0.0869
12. GGGGUCCACAGCAGAAGCGUUCACGUCGCGGCCCCUGUCCGAUUCUGGUGAAUCUGCGAAUUCUGCUGU  0.088
13. GGGGUCCACAGCAGAAGCGUUCACGUCGCGGCCCCUGUCAGAUUCUGGUGAAUCUGCGAAUUGUGCUGU  0.0897
14. GGGGUCCACAGCAGAAGCGUUGACGUCGCGGCCCCUGUCAGAUUCUGGUGAAUCUGCGAAUUCUGCUGU  0.09
15. GGGGUCCACAGCAGAAGCGUUCACGUCGCGGCCCCUGUCAGAUUCUGGUGAAUCUGCGAGUUCUGCUGU  0.0935
16. GGGGUCCACAGCAGAAGCGUUCAGGUCGCGGCCCCUGUCAGAUUCUGGUGAAUCUGCGAAUUCUGCUGU  0.0967
17. GGGGUCCACAGCAGAAGCGUUCAUGUCGCGGCCCCUGUCAGAUUCUGGUGAAUCUGCGAAUUCUGCUGU  0.0968
18. GGGGUCCACAUCAGAAGCGUUCACGUCGCGGCCCCUGUCAGAUUCUGGUGAAUCUGCGAAUUCUGCUGU  0.098
19. GGGGUCCACAGCAGAAGCGUUCACGUCGCUGCCCCUGUCAGAUUCUGGUGAAUCUGCGAAUUCUGCUGU  0.0993
20. GGGGUCCACAGCAGAAGCGUUCACGUCGCGGCCCCUGUCAGAUUCUGGUGAAUCUGAGAAUUCUGCUGU  0.11
21. GGGGUCCACAGCAGAAGCGUUCACGUCGCGGCCCCUGUCACAUUCUGGUGAAUCUGCGAAUUCUGCUGU  0.113
22. GGGGUCCACAGCAGAAGCGUUCACGUCGCGGCCCCUGUCAGAUUCUGGUGAAUCUGCGAAUUAUGCUGU  0.114
23. GGGGUCCACAGCAGAAGCGUUCACGUCGCGGCCCCUCUCAGAUUCUGGUGAAUCUGCGAAUUCUGCUGU  0.119
24. GGGGUCCACAGCAGAAGCGUUCACGUCGCGACCCCUGUCAGAUUCUGGUGAAUCUGCGAAUUCUGCUGU  0.132
25. GGGGUCCACAGCAGAAGCGUUCACGUCGCGGCCCCUGUCAGAUUCUGGUGAAUCUGCGAAUUCUGGUGU  0.133
26. GGGGUCCACAGCAGAAGCGUUCACGUCGCGGCCCCUGUCAGAUUCUGGUGAAUCUGCGAUUUCUGCUGU  0.149
27. GGGGUCCACAGCAGAAGCGUUCACGUCGCGGCCCCUGUCAGAUUCUGGUGCAUCUGCGAAUUCUGCUGU  0.187
28. GGGGUCCACAGUAGAAGCGUUCACGUCGCGGCCCCUGUCAGAUUCUGGUGAAUCUGCGAAUUCUGCUGU  0.188
29. GGGGUCCACAGCAGAAGCGUUCACGUCGCGGCCCCUGUCAGAUUCUGGUGAAUCUGCGAAUUCUGAUGU  0.19
30. GGGGUCCACAGCAGAAGCGUUCACGUCGCGGCCCCUGUCAGAUUCUGGUGGAUCUGCGAAUUCUGCUGU  0.198
31. GGGGUCCACAGCAGAAGCGUUCACGUCGCGGCCCCUGUCAGAUUAUGGUGAAUCUGCGAAUUCUGCUGU  0.208
32. GGGGUCCACAGCAGAAGCGUUCACGUCGCGGCCCCUGUCAGAUUCUGGUGUAUCUGCGAAUUCUGCUGU  0.236
33. GGGGUCCACAGCAGAAGCGUUCACGUCGCGGCCCCUGUCAGAUUCUGGUGAAUCUGCGAAUUUUGCUGU  0.24
34. GGGGUCCACAGCAGAAGCGUUCACGUCGCGGCCCCUGUCAGAUUCUCGUGAAUCUGCGAAUUCUGCUGU  0.277
35. GGGGUCCACAGCAGAAGCGUUCACGUCGCGGCCCCUGUCAGAUUUUGGUGAAUCUGCGAAUUCUGCUGU  0.291
36. GGGGUCCACAGCAGAAGCGUUCACGUCGCGGCCCCUGUCAGAUUCUAGUGAAUCUGCGAAUUCUGCUGU  0.294
37. GGGGUCCACAGCAGAAGCGUUCACGUCGCGGCCCCUGUCAGAUUCUUGUGAAUCUGCGAAUUCUGCUGU  0.296
38. GGGGUCCAAAGCAGAAGCGUUCACGUCGCGGCCCCUGUCAGAUUCUGGUGAAUCUGCGAAUUCUGCUGU  0.716
39. GGGGUCCAUAGCAGAAGCGUUCACGUCGCGGCCCCUGUCAGAUUCUGGUGAAUCUGCGAAUUCUGCUGU  0.877
